Measurements from the supplement of paper PMC10567573.

B1: VTI1B (parent)
chain: ANETLAEMEEELRYAPLSFRNPMM

Variants of: B1
Test: protein stability index of a GFP-peptide fusion (GPS, HEK-293T) (PSI 1-6); higher = more stable
Conditions: c terminus: a fixed tail appended
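Note: lentivirally expressed fusions sorted by FACS into six bins by GFP to DsRed ratio, PSI derived from sequencing read proportions per bin multiplied by bin number.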

Protein stability index of substitutions, site by site:
A15: N 2.64; Q 1.67; Y 2.52; E 3.56; S 1.61; L 2.03; C 1.64; I 2.06; R 1.76; F 1.39; K 3.09; M 1.53; D 3.7; G 3.44; V 3.98; W 2.92; H 1.9; T 2.06
E7: M 2.21; G 1.9; C 2.01; R 1.17; Q 2.31; H 2.2; D 2.69; K 2.52; T 2.53; Y 2.31; A 2.85; L 2.5; N 2.61; S 2.84; F 2.1; W 1.57
S18: C 2.24; D 2.98; T 1.79; F 2.64; H 2.94; K 3.81; L 3.19; Y 3.25; G 3.19; I 2.83; A 2.21; R 3.8; M 2.81; N 2.23; Q 3.35; P 4.1; E 3.79; V 3.14; W 3.98
L5: Q 2.86; Y 2.4; V 2.78; H 3.14; P 2.73; G 2.58; A 2.7; E 3.32; S 2.96; R 2.14; I 2.16; N 3.05; C 2.69; D 3.62; K 2.16; W 2.01; T 3.01; F 2.96
P16: K 2.92; I 2.43; S 2.92; Y 2.36; F 2.17; H 2.64; N 3.15; M 1.77; W 1.89; D 3.56; L 1.88; R 2.71; A 2.26; C 1.92; G 2; E 2.66; T 2.77; Q 2.29; V 1.3
N21: I 2.92; Y 3.39; D 3.12; M 3.37; L 3.13; S 3.41; A 3.81; K 3.61; G 3.72; T 3.17; C 2.71; W 2.21; Q 3.76; R 3.25; E 3.95; H 3.42; P 3.58; F 3.35
E9: D 2.85; P 3.22; V 1.66; Y 2.48; G 2.19; K 1.8; C 2.33; T 2.94; A 2.44; H 3.27; N 2.87; R 1.4; L 2.45; W 1.3; F 2.71; M 2.19; S 2.78; I 3.61
L12: D 4.49; M 2.28; A 3.14; R 2.59; F 3.14; H 3.79; S 4.33; E 3.65; T 3.9; Q 3.33; G 2.62; I 2.99; W 2.19; V 1.83; N 4.82; C 4.37; P 2.95; K 3.27; Y 4.21
Y14: C 1.98; T 2.53; V 2.09; W 1.32; K 1.93; M 1.65; A 2.48; P 2.43; N 2.62; L 3.08; G 2.11; D 3.36; E 3.66; F 2.06; S 1.94; H 1.7; Q 1.67; I 1.66; R 2.47
T4: L 2.47; N 2.79; M 2.07; K 2.72; R 1.99; Q 2.54; G 2.39; V 1.9; S 2.58; H 1.83; F 2.12; P 2.41; W 1.99; Y 1.23; E 3.26; I 2.4
E11: W 1.55; D 2.13; Q 1.95; N 2.81; H 2.89; L 2.29; C 2.22; R 2.31; V 1.65; S 3.02; A 2; K 3.41; M 2.45; I 2.69; T 3.25; F 1.66; Y 2.51; P 2.17
R20: N 1.51; H 1.7; S 2.03; F 2.63; G 2.65; D 2.48; A 2.25; P 3.62; L 2.57; T 2.42; E 2.58; V 1.71; I 1.9; K 3.36; C 2.35; W 2.48; M 2.4; Y 2.12; Q 1.72
P22: G 3.58; D 4.75; C 3.25; A 3.56; E 3.97; F 2.67
E10: F 2.75; P 2.73; I 2.05; S 2.56; K 2.73; A 2.04; Q 3.3; R 1.17; N 2.55; W 1.96; V 1.82; D 1.62; Y 1.69; H 3.06; L 2.05; M 1.87; T 3.02; C 2.16; G 1.49
M8: E 3.1; T 3.11; A 3.28; Y 2.73; W 1.51; S 3.14; L 2.3; I 2.8; N 2.72; H 3.39; G 3.19; P 3.11; D 3.37; R 2.46; K 2.4; Q 2.62; F 2.51; V 2.16; C 2.94
F19: R 4.18; G 4.5; T 4.44; E 4.67; M 4.23; P 4.87; V 3.28; C 4.43; D 4.85; Y 2.35; K 4.49; H 4.26; W 3.24; Q 3.96; N 4.3; A 3.94; I 3.73
L17: V 2.8; H 3.79; M 3.13; N 4.16; A 3.66; Y 3.41; G 3.49; R 2.93; T 4.06; I 3.02; P 3.78; W 2; Q 4.14; E 4.46; S 2.8; D 4.33; C 3.58; K 3.69; F 1.52
R13: F 2.01; Q 2.37; S 2.25; H 1.82; N 1.94; A 2.04; D 3.02; T 1.42; W 2.03; K 1.46; Y 1.64; P 2.75; C 2.77; G 1.67; L 1.7; M 2.29; V 2.64; E 2.11
A6: F 3.33; G 2.17; C 2.12; M 2.86; N 2.75; H 2.4; L 1.88; W 2.05; P 2.51; E 2.77; D 3.76; Y 2.18; K 2.78; Q 2.79; I 1.85; R 2.67; V 2.16; T 1.79; S 2.73
